Experiments:
Assay in all cases: SPR; […]; HBS-EP (10 mM HEPES pH 7.4, 150 mM NaCl, 3 mM EDTA, 0.005% Surfactant P20); […]
[1] = target: soluble head domain of CDV-H (canine distemper virus hemagglutinin), Kyoto Biken vaccine strain, made in HEK293T cells (canine distemper virus (Kyoto Biken vaccine strain))
[2] = target: MeV-H (measles virus hemagglutinin), vaccine strain (measles virus)
[3] = target: ectodomain (head domain) of CDV-H, 5VD wild-type strain (canine distemper virus (5VD wild-type strain))

Sequence of ectodomain of human Nectin-4 (residues 1-333) (Q96NY8 32-333): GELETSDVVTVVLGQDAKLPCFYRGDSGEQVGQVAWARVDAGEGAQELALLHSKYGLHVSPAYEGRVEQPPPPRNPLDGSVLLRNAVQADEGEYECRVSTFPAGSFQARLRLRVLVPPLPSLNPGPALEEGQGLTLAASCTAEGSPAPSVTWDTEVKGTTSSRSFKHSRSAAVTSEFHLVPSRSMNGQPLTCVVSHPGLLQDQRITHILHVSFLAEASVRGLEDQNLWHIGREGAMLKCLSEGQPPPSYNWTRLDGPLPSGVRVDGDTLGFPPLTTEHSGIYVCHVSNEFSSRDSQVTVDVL

Substance	Ka [1] [M⁻¹]	Kd [1] [nM]	Ka [2] [M⁻¹]	Kd [2] [nM]	Ka [3] [M⁻¹]	Kd [3] [nM]
ectodomain of dog Nectin-4 (residues 1-332) (receptor)	1.06e+06	942	950000	1050	396000	2530
ectodomain of human Nectin-4 (residues 1-333) (from UniProt Q96NY8 32-333) (receptor)	1.05e+06	2520	1.5e+06	666	397000	948

Source: article PMC11268888
